In patent US20250376536A1 (Bristol-Myers Squibb, published 2025):

Tests used:
human FAP on cells = molecular target: T1, human FAP on cells (human, UniProt Q12884 1-760); assay: cell-based or functional assay
T1 sequence: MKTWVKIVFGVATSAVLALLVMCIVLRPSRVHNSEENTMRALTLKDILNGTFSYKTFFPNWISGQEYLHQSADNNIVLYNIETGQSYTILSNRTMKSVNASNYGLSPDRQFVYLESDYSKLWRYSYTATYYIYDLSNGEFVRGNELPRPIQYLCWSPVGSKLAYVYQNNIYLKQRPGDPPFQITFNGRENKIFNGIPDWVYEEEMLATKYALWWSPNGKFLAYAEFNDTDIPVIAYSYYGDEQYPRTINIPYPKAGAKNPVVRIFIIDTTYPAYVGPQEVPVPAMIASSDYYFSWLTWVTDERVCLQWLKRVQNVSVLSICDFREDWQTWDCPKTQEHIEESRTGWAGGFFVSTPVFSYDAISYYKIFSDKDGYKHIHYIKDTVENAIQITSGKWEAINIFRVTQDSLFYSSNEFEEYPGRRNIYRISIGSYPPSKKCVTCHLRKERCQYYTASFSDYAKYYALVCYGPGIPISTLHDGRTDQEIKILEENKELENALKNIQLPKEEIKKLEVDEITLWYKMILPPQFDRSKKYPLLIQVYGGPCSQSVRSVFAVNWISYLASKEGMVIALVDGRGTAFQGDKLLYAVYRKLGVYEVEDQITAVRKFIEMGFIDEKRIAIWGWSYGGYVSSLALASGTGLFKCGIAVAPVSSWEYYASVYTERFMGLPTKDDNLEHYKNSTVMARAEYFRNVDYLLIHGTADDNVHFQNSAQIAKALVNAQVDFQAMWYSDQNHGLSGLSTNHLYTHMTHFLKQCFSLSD

soluble FAP [1] = molecular target: T2, soluble FAP (human, UniProt Q12884 26-760, limits assumed); assay: cell-based or functional assay
T2 sequence: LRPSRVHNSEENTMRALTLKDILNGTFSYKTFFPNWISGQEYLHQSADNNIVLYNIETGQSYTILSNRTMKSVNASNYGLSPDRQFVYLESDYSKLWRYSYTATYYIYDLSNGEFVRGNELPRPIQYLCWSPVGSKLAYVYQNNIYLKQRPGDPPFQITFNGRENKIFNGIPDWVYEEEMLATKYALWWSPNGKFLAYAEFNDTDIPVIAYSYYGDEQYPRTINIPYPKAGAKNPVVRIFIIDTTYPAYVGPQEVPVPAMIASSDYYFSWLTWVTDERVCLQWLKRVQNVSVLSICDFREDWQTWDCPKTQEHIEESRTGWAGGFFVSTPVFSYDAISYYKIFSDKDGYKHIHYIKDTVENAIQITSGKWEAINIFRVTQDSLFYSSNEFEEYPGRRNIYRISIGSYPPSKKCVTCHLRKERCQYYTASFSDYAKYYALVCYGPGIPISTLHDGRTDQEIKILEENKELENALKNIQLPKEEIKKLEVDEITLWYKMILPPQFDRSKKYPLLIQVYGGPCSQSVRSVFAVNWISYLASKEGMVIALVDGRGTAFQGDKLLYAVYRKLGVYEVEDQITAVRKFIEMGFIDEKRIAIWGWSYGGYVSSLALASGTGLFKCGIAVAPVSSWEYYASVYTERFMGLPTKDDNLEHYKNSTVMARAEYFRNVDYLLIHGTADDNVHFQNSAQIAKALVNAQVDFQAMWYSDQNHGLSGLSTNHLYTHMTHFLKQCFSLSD

FcγRI (CD64) = molecular target: T3, FcγRI (CD64) (UniProt P12314 16-288, limits assumed); assay: SPR, Biacore S200, antibody captured on Protein A chip, FcγR as analyte
T3 construct: also called FcγR1 (CD64); FcγR1
Protocol: Binding of CD40.9H3×FAP.LP62 and the analog of RO7300490 to various Fc gamma receptors (FcγR1 (CD64), FcγRIIIA (CD16a), FcγRIIIB (CD16b), FcγRIIA (CD32a), FcγRIIB (CD32b)) was determined in an analyte/capture assay in vitro. Briefly, an SPR assay was performed using a Biacore S200 with a Biacore Series S Protein A chip (Cytiva). All antibodies were prepared at 4.0 μg/ml in 1×HBS-EP+ running buffer (Cytiva) and captured onto flow cells 2, 3, and 4 through a 60 second contact time at 10 μl/min. An analyte series of the FcγRs (BMS In-House Produced) were prepared at 10,000 nM in 1×HBS-EP+ with eight, three-fold dilutions. Kinetic measurements were conducted with a 120 second association followed by a 120 second dissociation at 30 μl/min. Surface regeneration was preformed by 60 second contact time of 50 mM Glycine pH 1.5 solution (Cytiva) at 30 μl/min. Data was processed in Biacore Insight Evaluation Version 5 (Cytiva). Sensorgrams were double referenced and globally fit to a 1:1 Langmuir model were applicable. Where 1:1 model was not sufficient to describe the interaction (fast-on and fast-off rates), steady state equilibrium fitting was used to determine the equilibrium constant.

soluble FAP [2] = molecular target: T2, soluble FAP; assay: cell-based or functional assay; remark: listed apart in the source
human FAP protein = molecular target: T4, human FAP protein (human, UniProt Q12884 26-760); assay: SPR
T4 sequence: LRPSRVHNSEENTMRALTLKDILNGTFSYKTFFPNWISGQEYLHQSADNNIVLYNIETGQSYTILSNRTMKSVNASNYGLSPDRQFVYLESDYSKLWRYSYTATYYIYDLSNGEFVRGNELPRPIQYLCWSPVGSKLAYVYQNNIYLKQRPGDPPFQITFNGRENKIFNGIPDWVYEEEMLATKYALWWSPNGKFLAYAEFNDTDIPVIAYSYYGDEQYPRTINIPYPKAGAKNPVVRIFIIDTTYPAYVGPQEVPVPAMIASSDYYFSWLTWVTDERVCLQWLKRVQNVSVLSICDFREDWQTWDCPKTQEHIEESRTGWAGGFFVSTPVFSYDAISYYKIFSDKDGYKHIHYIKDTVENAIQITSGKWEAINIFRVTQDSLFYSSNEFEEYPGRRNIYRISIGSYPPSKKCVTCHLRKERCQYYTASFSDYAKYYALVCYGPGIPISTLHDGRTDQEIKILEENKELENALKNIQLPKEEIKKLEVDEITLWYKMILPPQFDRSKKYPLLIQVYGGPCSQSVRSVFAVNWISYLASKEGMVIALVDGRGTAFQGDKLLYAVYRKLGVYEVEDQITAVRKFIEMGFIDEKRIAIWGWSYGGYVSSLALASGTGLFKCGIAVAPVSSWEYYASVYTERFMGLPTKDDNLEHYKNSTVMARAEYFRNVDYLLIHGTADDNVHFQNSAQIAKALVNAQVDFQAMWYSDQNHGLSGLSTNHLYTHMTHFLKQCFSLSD
Protocol: (§1) CD40.9H3×FAP.LP62 and an analog of RO7300490 (see SEQ ID NOs: 39-42) binding to human and cynomolgus (cyno) CD40 and FAP was evaluated by surface plasmon resonance (SPR) using human and cyno CD40 and FAP proteins. […] The rates of association and dissociation of CD40.9H3×FAP.LP62 and the analog of RO7300490 to human CD40 and FAP are summarized in Table 2.

human CD40 protein = molecular target: T5, human CD40 protein (human, UniProt P25942 21-193); assay: SPR
T5 construct: Protein used in SPR
Protocol: as §1

T5 sequence (P25942 21-193 limits assumed): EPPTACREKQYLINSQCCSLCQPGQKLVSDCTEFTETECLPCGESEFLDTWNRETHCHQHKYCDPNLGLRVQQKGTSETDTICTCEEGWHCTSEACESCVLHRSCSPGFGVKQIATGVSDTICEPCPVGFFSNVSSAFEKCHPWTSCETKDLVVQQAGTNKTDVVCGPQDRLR
T3 sequence (P12314 16-288 limits assumed): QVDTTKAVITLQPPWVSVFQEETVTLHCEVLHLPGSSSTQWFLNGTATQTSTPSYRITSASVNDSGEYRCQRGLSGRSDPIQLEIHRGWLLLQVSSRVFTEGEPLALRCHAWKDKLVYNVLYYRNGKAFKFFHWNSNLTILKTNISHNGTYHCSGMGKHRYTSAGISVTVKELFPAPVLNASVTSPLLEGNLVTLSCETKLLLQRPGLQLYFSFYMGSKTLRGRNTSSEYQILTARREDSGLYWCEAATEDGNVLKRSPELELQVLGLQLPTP

B1: analog of RO7300490 (bispecific antibody, human IgG1, kappa, L234A L235A)
heavy 1: not shown
heavy 2: QVQLVQSGAEVKKPGASVKVSCKASGYSFTGYYIHWVRQAPGQSLEWMGRVIPNAGGTSYNQKFKGRVTLTVDKSISTAYMELSRLRSDDTAVYYCAREGIYWWGQGTTVTVSSASTKGPSVFPLAPSSKSTSGGTAALGCLVEDYFPEPVTVSWNSGALTSGVHTFPAVLQSSGLYSLSSVVTVPSSSLGTQTYICNVNHKPSNTKVDEKVEPKSCDKTHTCPPCPAPEAAGGPSVFLFPPKPKDTLMISRTPEVTCVVVDVSHEDPEVKFNWYVDGVEVHNAKTKPREEQYNSTYRVVSVLTVLHQDWLNGKEYKCKVSNKALGAPIEKTISKAKGQPREPQVCTLPPSRDELTKNQVSLSCAVKGFYPSDIAVEWESNGQPENNYKTTPPVLDSDGSFFLVSKLTVDKSRWQQGNVFSCSVMHEALHNHYTQKSLSLSPG
light 1: DIVMTQTPLSLSVTPGQPASISCRSSQSLVHSNGNTFLHWYLQKPGQSPQLLIYTVSNRFSGVPDRFSGSGSGTDFTLKISRVEAEDVGVYFCSQTTHVPWTFGGGTKVEIKRTVAAPSVFIFPPSDRKLKSGTASVVCLLNNFYPREAKVQWKVDNALQSGNSQESVTEQDSKDSTYSLSSTLTLSKADYEKHKVYACEVTHQGLSSPVTKSFNRGEC
light 2: QVQLVQSGAEVKKPGASVKVSCKASGYTLTDYNMDWVRQAPGQGLEWIGDIYPNTGGTIYNQKFKGRVTMTIDTSTSTVYMELSSLRSEDTAVYYCTRFRGIHYAMDYWGQGTTVTVSSASVAAPSVFIFPPSDEQLKSGTASVVCLLNNFYPREAKVQWKVDNALQSGNSQESVTEQDSKDSTYSLSSTLTLSKADYEKHKVYACEVTHQGLSSPVTKSFNRGEC
notes: Human IgG1 Fc with L234A, L235A, P329G; also called RO7300490 analog
IL12p40 release, human DC + HFF1 co-culture, EC50, soluble FAP 0 ng/mL (human FAP on cells): 0.09 nM | IL12p40 release, human DC + HFF1 co-culture, EC50, soluble FAP 120 ng/mL (soluble FAP [1]): 1.14 nM | IL12p40 release, human DC + HFF1 co-culture, EC50, soluble FAP 480 ng/mL (soluble FAP [1]): 516 nM | Kd (FcγRI (CD64)): 2550 nM | fold reduction in potency of IL12p40 secretion with 120 ng/mL soluble FAP (soluble FAP [2]): 14.2 fold | fold reduction in potency of IL12p40 secretion with 480 ng/mL soluble FAP (soluble FAP [2]): 70.9 fold | Kd (human FAP protein): 0.265 nM | koff (human FAP protein): 4.83e-05 s⁻¹ | kon (human FAP protein): 182000 M⁻¹ s⁻¹ | Kd (human CD40 protein): 4.9 nM | koff (human CD40 protein): 0.00555 s⁻¹ | kon (human CD40 protein): 1.13e+06 M⁻¹ s⁻¹
